Source: the Immune Epitope Database (IEDB)

Legend:
[1] = target: HLA-A*26:01; experiment: IEDB peptide-MHC binding, purified MHC/direct/fluorescence; filed as Kd, often an IC50 or EC50 that approximates it; ≥ and ≤ were set here for values at or beyond the usual limits of such assays; details: source organism: Mycobacterium avium 104
[2] = target: HLA-A*01:01; experiment: as above
[3] = target: HLA-A*23:01; experiment: IEDB peptide-MHC binding, purified MHC/competitive/radioactivity; filed as Kd, often an IC50 or EC50 that approximates it; ≥ and ≤ were set here for values at or beyond the usual limits of such assays
[4] = target: HLA-A*24:02; experiment: as above
[5] = target: HLA-A*29:02; experiment: as above
[6] = target: HLA-A*02:01; experiment: IEDB peptide-MHC binding, purified MHC/competitive/fluorescence; filed as Kd, often an IC50 or EC50 that approximates it; ≥ and ≤ were set here for values at or beyond the usual limits of such assays
[7] = target: HLA-A*30:02; experiment: IEDB peptide-MHC binding, purified MHC/competitive/radioactivity; filed as Kd, often an IC50 or EC50 that approximates it; ≥ and ≤ were set here for values at or beyond the usual limits of such assays
[8] = target: HLA-A*26:01; experiment: as above
[9] = target: HLA-A*01:01; experiment: as above
[10] = target: HLA-B*07:02; experiment: as above
[11] = target: HLA-A*11:01; experiment: as above; details: source organism: Vaccinia virus WR
[12] = target: HLA-A*33:01; experiment: as above; details: source organism: Vaccinia virus WR
[13] = target: HLA-A*30:01; experiment: as above; details: source organism: Vaccinia virus WR
[14] = target: HLA-A*31:01; experiment: as above; details: source organism: Vaccinia virus WR
[15] = target: HLA-A*68:01; experiment: as above; details: source organism: Vaccinia virus WR
[16] = target: HLA-A*03:01; experiment: as above; details: source organism: Vaccinia virus WR
[17] = target: HLA-A*11:01; experiment: IEDB peptide-MHC binding, purified MHC/direct/fluorescence; filed as Kd, often an IC50 or EC50 that approximates it; ≥ and ≤ were set here for values at or beyond the usual limits of such assays; details: source organism: SARS-CoV1
[18] = target: HLA-B*58:01; experiment: as above; details: source organism: SARS-CoV1
[19] = target: HLA-A*03:01; experiment: as above; details: source organism: SARS-CoV1
[20] = target: HLA-B*15:01; experiment: as above; details: source organism: SARS-CoV1
[21] = target: HLA-B*51:01; experiment: IEDB peptide-MHC binding, purified MHC/competitive/radioactivity; filed as Kd, often an IC50 or EC50 that approximates it; ≥ and ≤ were set here for values at or beyond the usual limits of such assays; details: source organism: Dengue virus 1 Brazil/97-11/1997
[22] = target: HLA-A*02:03; experiment: as above; details: source organism: SARS coronavirus Tor2
[23] = target: HLA-A*02:02; experiment: as above; details: source organism: SARS coronavirus Tor2
[24] = target: HLA-A*02:06; experiment: as above; details: source organism: SARS coronavirus Tor2
[25] = source organism: Dengue virus 4 Philippines/H241/1956
[26] = source organism: Mammarenavirus brazilense
[27] = source organism: SARS coronavirus Tor2
[28] = source organism: Lymphocytic choriomeningitis virus (strain Armstrong)
[29] = source organism: Triticum aestivum
[30] = source organism: Dengue virus 1 Brazil/97-11/1997

LTVTLVWLY was tested, and the Kd [1] was 2.7 nM and the Kd ([2]; source organism: Mycobacterium avium 104) was at least 20000 nM.
In the case of LYPLAIPVTM, the Kd [3, 25] is reported as 336 nM and the Kd [4, 25] is reported as 1510 nM.
With LYTVKFPNLI the Kd [3, 26] was 538 nM, the Kd [4, 26] was 605 nM and the Kd [5, 26] was at least 54700 nM.
For MLAESCDSV, the Kd ([6]; source organism: Vaccinia virus) was 1.1 nM.
Work on MPQMKKILK yielded a Kd ([6]; source organism: Vaccinia virus WR) of 2010 nM.
Work on NFKHLREFVF yielded a Kd [3, 27] of 115 nM, a Kd [4, 27] of 260 nM and a Kd [5, 27] of 16.4 nM. It also gave a Kd [7, 27] of at least 78900 nM, a Kd [8, 27] of at least 69700 nM and a Kd [9, 27] of at least 70400 nM.
Work on NGDVVAIDY yielded a Kd [3, 27] of at least 77800 nM, a Kd [4, 27] of at least 77600 nM and a Kd [5, 27] of 825 nM. It also gave a Kd [7, 27] of 1800 nM, a Kd [8, 27] of at least 81500 nM and a Kd [9, 27] of 1030 nM.
PMMCPFLFL gave a Kd [3, 28] of 220 nM, a Kd [4, 28] of 484 nM and a Kd [5, 28] of 208 nM.
In the case of PYPQPQPQY, the Kd [3, 29] is reported as at least 49400 nM, the Kd [4, 29] is reported as at least 237000 nM and the Kd [5, 29] is reported as 230 nM. The Kd [7, 29] was 639 nM, the Kd [8, 29] was at least 77900 nM and the Kd [9, 29] was at least 78100 nM.
In the case of QFLYLYALI, the Kd [3, 27] is reported as 0.117 nM, the Kd [4, 27] is reported as 26.1 nM and the Kd [5, 27] is reported as 64.1 nM. For the same sequence, the Kd [7, 27] was at least 26700 nM, the Kd [8, 27] was 10100 nM and the Kd [9, 27] was 2320 nM.
Sequence QSDTVFDHY has a Kd ([3]; source organism: Variola virus) of at least 77700 nM, a Kd ([4]; source organism: Variola virus) of at least 77500 nM and a Kd ([5]; source organism: Variola virus) of at least 38000 nM. It also gave a Kd ([7]; source organism: Variola virus) of 11900 nM, a Kd ([8]; source organism: Variola virus) of at least 77900 nM and a Kd ([9]; source organism: Variola virus) of 9.5 nM.
In the case of RIQQYMFFM, the Kd ([6]; source organism: Human alphaherpesvirus 1 strain 17) is reported as 81 nM.
Sequence RPRWLDARVY has a Kd ([10]; source organism: Dengue virus 4 Dominica/814669/1981) of 13.7 nM.
Work on RPTFAAGLL yielded a Kd ([10]; source organism: Dengue virus 2 Jamaica/1409/1983) of 1.09 nM.
For RVLFSIFYK, the Kd [11] was 53.2 nM, the Kd [12] was 1860 nM and the Kd [13] was 118 nM. The Kd [14] was 0.861 nM, the Kd [15] was 120 nM and the Kd [16] was 5.35 nM.
With SFYADPKRFF the Kd [3, 28] was 126 nM, the Kd [4, 28] was 709 nM and the Kd [5, 28] was 44.4 nM.
For SSQGSEYDY, the Kd [3, 27] was at least 77800 nM, the Kd [4, 27] was at least 77600 nM and the Kd [5, 27] was 294 nM. For the same sequence, the Kd [7, 27] was 68.9 nM, the Kd [8, 27] was at least 102000 nM and the Kd [9, 27] was 576 nM.
With SWLVHKQWFL the Kd [3, 30] was 173 nM and the Kd [4, 30] was 2700 nM.
TCDGNTFTY was tested, and the Kd [3, 27] was at least 77800 nM, the Kd [4, 27] was at least 23900 nM and the Kd [5, 27] was 6.85 nM. It also gave a Kd [7, 27] of 107 nM, a Kd [8, 27] of at least 38600 nM and a Kd [17] of 2480 nM. The Kd ([2]; source organism: SARS-CoV1) was 531 nM.
With TPSMAMRCVG the Kd [10, 30] was 405 nM.
With TSNPKTPKY the Kd [3, 27] was at least 77800 nM, the Kd [4, 27] was at least 77600 nM and the Kd [5, 27] was 549 nM. The Kd [7, 27] was 0.228 nM, the Kd [8, 27] was at least 56400 nM and the Kd [17] was 14300 nM. For the same sequence, the Kd [18] was 212 nM, the Kd [19] was 1230 nM and the Kd ([2]; source organism: SARS-CoV1) was 4520 nM. For the same sequence, the Kd [20] was 393 nM.
In the case of VLFRLENHA, the Kd ([6]; source organism: Vaccinia virus WR 65-16) is reported as 56.5 nM.
VWTLMNVITL showed a Kd [3, 27] of 62.2 nM, a Kd [4, 27] of 188 nM and a Kd [5, 27] of 72.1 nM. For the same sequence, the Kd [7, 27] was 19400 nM, the Kd [8, 27] was 1500 nM and the Kd [9, 27] was 2720 nM.
WPLNEGIMAI showed a Kd [21] of 186 nM.
Sequence YQCGHYTHI has a Kd [3, 27] of 312 nM, a Kd [22] of 14.9 nM and a Kd [4, 27] of 116 nM. It also gave a Kd [23] of 72.1 nM, a Kd [24] of 9.23 nM and a Kd [5, 27] of at least 25000 nM. The Kd [7, 27] was 10900 nM, the Kd [8, 27] was 13300 nM and the Kd [9, 27] was at least 20100 nM.
